Measured values published in patent US20250320468A1, “New Microbial Diamine Oxidase Derived from Yarrowia Lipolytica for the Degradation of Biogenic Amines” (UNIVERSITÄT HOHENHEIM, priority 2021, published 2025).
Values joined by “and” are separate entries in the source; they are usually repeats but may differ in a detail not shown here. Identical values can stand only once.

Tests used:
[1] = DAO activity determination, colorimetric DA-67 enzyme assay (specific / total DAO activity); type: biochemical
Method: The DAO activity was determined using the colorimetric DA-67 enzyme assay, as known in the art.

[2] = Substrate selectivity of DAO-1 (DA-67 assay), cadaverine; type: biochemical; conditions: 100% = 10 mM histamine
Method: (§1) The amino acids L-tryptophan, L-lysine, L-histidine, and L-arginine were also tested.

[3] = substrate: NCCc1c[nH]cn1; assay: purified protein, by the assay type
[4] = pH-stability of DAO-1 in buffer systems at 37° C; type: physicochemical
Method: Consequently, DAO-1 was incubated for 5 h at 37° C. and stirred at 400 rpm in the following buffer systems: 20 mM MES (pH 5.5), 20 mM sodium phosphate buffer (pH 6.2, 7.0, 7.2, 7.8, 8.0), 20 mM PIPES (pH 7.0, 7.2, 7.5) and 20 mM Tris-HCl (pH 6.8, 7.5, 8.2). Afterwards, the residual enzyme activity of DAO-1 was determined under standard assay conditions and compared to the DAO-1 activity applied initially.

[5] = Substrate selectivity of DAO-1 (DA-67 assay), agmatine; type: biochemical; conditions: 100% = 10 mM histamine
Method: as §1

[6] = Substrate selectivity of DAO-1 (DA-67 assay), histamine; type: biochemical
Method: as §1

[7] = Histamine bioconversion with DAO-1 in PIPES buffer with simulated food matrix (RP-HPLC); type: biochemical; conditions: for histamine concentration after bioconversion: 0.1 nkat/mL DAO-1, 5 h
Method: An amount of 5 g/L BSA and 25 g/L sucrose were added to the approach to simulate a food matrix. Additionally, catalase was added (30 nkat/mL) to remove the hydrogen peroxide. The experiment was started by the addition of 0.1 nkat/mL DAO-1 activity.

[8] = Substrate selectivity of DAO-1 (DA-67 assay), tryptamine; type: biochemical; conditions: substrate tryptamine 1 mM; 100% = 10 mM histamine
Method: as §1

[9] = Temperature and pH profile of DAO-1 (DA-67 assay); type: biochemical
Method: The influence of temperature on the enzyme activity of DAO-1 was tested under standard assay conditions, whereby the incubation temperature was varied between 2° and 47° C. The pH-dependency of the DAO-1 activity was investigated under standard assay conditions at 37° C., whereby different buffer systems (50 mM sodium phosphate buffer, pH 6.2-7.8; 50 mM PIPES, pH 7-7.5; 50 mM Tris-HCl, pH 7.2-8.5) were used. The respective buffer system was calibrated with hydrogen peroxide (0.5 to 10 nmol/mL). Analytically pure histamine was used as a substrate for the temperature and pH profiles.

[10] = Substrate selectivity of DAO-1 (DA-67 assay), amino acids; type: biochemical; conditions: L-tryptophan, L-lysine, L-histidine, L-arginine at 1, 10 and 50 mM
Method: as §1

[11] = Michaelis-Menten kinetics of DAO-1 in PIPES buffer; type: biochemical; conditions: read-out: Km for histamine; PIPES buffer 25 mM pH 7.2, 37° C
Description: Kinetic investigations were done within the initial reaction velocity.

[12] = Stability of DAO-1 in simulated intestinal fluid (SIF) with and without food matrices; type: in vitro ADME
Method: The stability of DAO-1 was tested in a simulated intestinal fluid (SIF) with and without the addition of simulated food matrices. Therefore, pancreatin-containing SIF was prepared as described in the United States Pharmacopeia (USP42). Different food-matrix stock solutions (4× concentrated) were prepared as follows: 200 g/L bovine serum albumin (BSA) and 100 g/L sucrose (=food-matrix 1), 100 g/L BSA, 100 g/L whey protein isolate (WPI) and 200 g/L sucrose (=food-matrix 2) and BSA, WPI, sodium-caseinate each at 66.68 g/L and 200 g/L sucrose (=food-matrix 3). The pH of each stock solution was adjusted to 6.8 with 1 M NaOH. The freshly prepared 2× concentrated SIF, the food-matrix stock solutions as well as DAO-1 (desalted against H2Odd using PD MidiTrap G-25 columns; GE Healthcare, Chicago, USA) were individually incubated for 5 min in a thermoshaker at 37° C. Subsequently, 500 μL of 2× concentrated SIF, 250 μL of DAO-1 and 250 μL of the food-matrix stock solutions were combined and incubated at 37° C., 500 rpm in a thermoshaker. In order to test the stability of DAO-1 without the presence of stabilizing compounds, H2Odd was added instead of the food-matrix stock solution. Immediately after combining the solutions, a sample of 100 μL was taken and used for the DAO-1 activity determination using the DA-67 assay.

[13] = Substrate selectivity of DAO-1 (DA-67 assay), tyramine; type: biochemical; conditions: 100% = 10 mM histamine
Method: as §1

[14] = Substrate selectivity of DAO-1 (DA-67 assay), spermidine; type: biochemical; conditions: 100% = 10 mM histamine
Method: as §1

[15] = Substrate selectivity of DAO-1 (DA-67 assay), putrescine; type: biochemical; conditions: 100% = 10 mM histamine
Method: as §1

[16] = bioreactor cultivation, crude extract
[17] = other: apparent, histamine 0.5-50 mM, PIPES buffer (25 mM; pH 7.2), 37° C., pH 7.2

B1: Yarrowia lipolytica PO1f diamine oxidase-1 (DAO-1), wild type, SEQ ID NO: 1 (Yarrowia lipolytica CLIB122) (protein)
chain: MTPHPFDQLSVQEMESVVRVVKSNHSGKSLHLKSIGTEEPPKALMAPFLAAKRAGKNPVPPPRIAHVIYYVLEDKLVNQCWVDVPSAKVVKSEVLKKGIHPPIDPWEANEAFEAAFDHPLVKDAIKKCGVEHLIDNLTIDGWMYGCDSEIDMPRYLQMLVYCRDPKTNHQDSNMYAFPVPFVPVYDVLEKKLVRVDYCATGGDDDDAAVEGVGNYDTRPEGKNCIEHCVTNDYLPELQDKMRTDLKPYNVLQPEGPSYHIDSDGYINWQKWHFKVGFTPREGLVIHDVHYDGRSTFYRLSMSEMAVPYADPRPPLHRKMAFDFGDCGGGKCANELTLGCDCLGTIRYFDGNVCDPEGNVFTRKNVICMHEQDDGIGWKHTNYRTDVVAITRRRILVLQTILTVGNYEYIFAWHFDQSAGIQLEIRATGIVSTQLIDAGKKSKFGTIVSPGVMAASHQHIFNVRMDPAIDGHQNTVVVNDTVALPWDAKNPHGIAFENTKTPIEKSCYLDSDIQKNRYLKICNENKINPISGNPVGYKIGGLATAMLYAQPGSVSRNRAAFATHHYWVTKYKDQELFAGGVWTNQSANEVGGVQDAVARNENVRNDDVVLWHSFGLTHHPRVEDFPVMPCEIMKIHLSPNDFFTGNPSVDVPKSNQTFNRSVEVKDCRSCKI
[1]; 5 L scale purified preparation
  increase of specific DAO-1 activity compared to the recent work: 3 fold
[1]; 5 L scale, stirred media mill, ammonium sulfate precipitation and HIC
  specific DAO-1 activity: 15 μkat/gProtein
[1]; 1301 vs 81 nkat/gProtein
  specific DAO-1 activity of crude extract relative to partially purified porcine DAO: around 16 times
[1]; DAO-1 produced in Komagataella phaffii, fed-batch bioreactor
  specific DAO-1 activity: 2500 nkat/gProtein
[1]; K. phaffii DAO-1 after assumed 7.2-fold purification
  specific DAO-1 activity relative to specific DAO activity obtained from porcine kidney: more than 200 fold
[1]; after (NH4)2SO4 precipitation and hydrophobic interaction chromatography
  specific DAO-1 activity: 4738±31 nkat/gProtein
[1]; after cell disruption (high-pressure homogenizer) of 10 g wet yeast biomass, before purification
  specific DAO-1 activity: 660±28 nkat/gProtein
[1]; after chromatographic purification
  increase in specific DAO activity compared with extracted and purified DAO from porcine kidney: ~60 fold
[1]; [16]
  increase in specific DAO activity compared with DAO extraction from porcine kidney: 145 fold
  increase in specific DAO activity compared with native DAO-1 production in Y. lipolytica PO1f: 93 fold
[1]; crude extract, bioreactor cultivation of Y. lipolytica PO1f_axp_dao-1, final (96 h)
  specific DAO-1 activity: 1301±54.2 nkat/gProtein
[2]; substrate cadaverine 1 mM
  DAO-1 activity [%]: 29.6 ± 0.4%
[2]; substrate cadaverine 10 mM
  DAO-1 activity [%]: 87.3 ± 1.3%
[2]; substrate cadaverine 50 mM
  DAO-1 activity [%]: 64.5 ± 1.0%
[3]; [17]
  Km: 2300 ± 200 µM
  Vmax: 9.09±0.37 nkat/mg
[3]; other: hydrolyzed food-matrix SIF 3 (pancreatin, 90 min at 37° C.), pH 6.8, histamine 1.56-50 mM, pH 6.8
  Km: 4200 ± 500 µM
[4]; 37° C, 5 h, pH range from 6.2 to 7.5
  residual DAO-1 activity: more than 60%
[4]; 37° C, 24 h
  residual DAO-1 activity: 53.7±1.2%
[4]; PIPES buffer (20 mM) pH 7.0, 37° C, 5 h
  residual DAO-1 activity: 89.5±0.8%
[5]; substrate agmatine 1 mM
  DAO-1 activity [%]: 31 ± 1.1%
[5]; substrate agmatine 10 mM
  DAO-1 activity [%]: 30.6 ± 2.7%
[5]; substrate agmatine 50 mM
  DAO-1 activity [%]: 7.4 ± 2.3%
[6]; substrate histamine 1 mM, 100% = 10 mM histamine
  DAO-1 activity [%]: 45.1 ± 0.7%
[6]; substrate histamine 10 mM, reference 100%
  DAO-1 activity [%]: 100 ± 1.5%
[6]; substrate histamine 50 mM, 100% = 10 mM histamine
  DAO-1 activity [%]: 74.4 ± 1.1%
[7]; after 5 h bioconversion at 37° C, determined by RP-HPLC
  residual activity of DAO-1 after bioconversion: 57.4±1.3%
[7]; around 4 h
  histamine concentration at start of stagnation: 43.5±0.76 mg/L and 0.39±0.01 mM
[7]; initial 1.35 mM, 37° C
  histamine concentration after bioconversion: 0.34 ± 0.01 mM
[7]; initial 150 mg/L, 37° C
  histamine concentration after bioconversion: 37.4±0.65 mg/L and 37.4±+0.65 mg/L
[7]; initial 150 mg/L, 5 hours, 37° C
  remaining histamine relative to initial (100%): 25±1.7%
[8]
  DAO-1 activity [%]: 166.1 ± 0.8%
[9]; 42° C, relative to maximum at 40° C
  relative DAO-1 activity: 76±1%
[9]; 45° C, relative to maximum at 40° C
  relative DAO-1 activity: 31.7±1%
[9]; PIPES buffer
  DAO-1 activity compared to the maximal activity in Tris-HCl at pH 7.2: 92.2±3.9%
[9]; PIPES buffer 25 mM pH 7.2, histamine substrate
  temperature of maximal DAO-1 activity: 40 °C
[9]; Tris-HCl buffer (50 mM), 37° C, histamine substrate
  pH of maximal DAO activity: 7.2
[9]; pH/buffer profile at 37° C (FIG. 8)
  Maximal DAO-1 activity (100%): 1.84±0.03 nkat/mL
[9]; temperature profile, PIPES 25 mM pH 7.2 (FIG. 7)
  Maximal DAO-1 activity (100%): 1.88±0.01 nkat/mL
[9]; temperature range between 3° and 42° C
  relative DAO-1 activity: greater than 50%
[10]
  DAO-1 activity towards amino acids: did not show any activity
[11]
  Km: 2300 µM
[12]; food-matrix SIF 1 (50 g/L BSA, 25 g/L sucrose), 37° C
  half-life period: around 15 min
[12]; food-matrix SIF 2 (25 g/L BSA, 25 g/L WPI, 50 g/L sucrose), 37° C
  half-life period: around 30 min
[12]; food-matrix SIF 3, 37° C
  initially applied DAO-1 activity available over 90 min: around 43%
[12]; food-matrix SIF 3, 90 min, 37° C
  residual DAO-1 activity: 8±0.1%
[12]; pure SIF (pancreatin), 37° C
  half-life period: less than 5 min
[13]; substrate tyramine 1 mM
  DAO-1 activity [%]: 303.9 ± 4.4%
[13]; substrate tyramine 10 mM
  DAO-1 activity [%]: 246.8 ± 3.6%
[13]; substrate tyramine 50 mM
  DAO-1 activity [%]: 66.4 ± 1.0%
[14]; substrate spermidine 1 mM
  DAO-1 activity [%]: 2.1 ± 1.6%
[14]; substrate spermidine 10 mM
  DAO-1 activity [%]: 3.8 ± 0.9%
[14]; substrate spermidine 50 mM
  DAO-1 activity [%]: 2.1 ± 1.3%
[15]; substrate putrescine 1 mM
  DAO-1 activity [%]: 29.8 ± 0.4%
[15]; substrate putrescine 10 mM
  DAO-1 activity [%]: 92.9 ± 1.4%
[15]; substrate putrescine 50 mM
  DAO-1 activity [%]: 77.9 ± 1.1%
